Here are results for three molecules from patent US20260242504A1 (published 2026).

The assay concerns the target T1, recombinant human 5T4 protein (5T4/His) (UniProt Q13641 32-355).
T1 chain: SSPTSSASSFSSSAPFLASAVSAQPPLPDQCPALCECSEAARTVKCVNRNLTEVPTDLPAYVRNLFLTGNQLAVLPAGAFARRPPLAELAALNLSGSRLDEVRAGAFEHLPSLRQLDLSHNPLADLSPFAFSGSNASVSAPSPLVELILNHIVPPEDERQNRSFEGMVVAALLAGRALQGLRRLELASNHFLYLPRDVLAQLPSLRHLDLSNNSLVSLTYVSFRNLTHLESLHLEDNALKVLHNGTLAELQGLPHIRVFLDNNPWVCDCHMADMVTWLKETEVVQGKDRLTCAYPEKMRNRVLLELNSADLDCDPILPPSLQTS
In words: ELISA. For orientation: An ELISA detects its analyte on a solid surface through an enzyme-linked reagent.

B1: 53D tribody (other)
chain 1: QVQLVQSGAEVKKPGASVKVSCKASGYSFTSYYMHWVKQSPGQGLEWIGRINPNNGVTLYNQKFKDRVTMTRDTSISTAYMELSRLRSDDTAVYYCARSTMITNYVMDYWGQGTLVTVSSASTKGPSVFPLAPSSKSTSGGTAALGCLVKDYFPEPVTVSWNSGALTSGVHTFPAVLQSSGLYSLSSVVTVPSSSLGTQTYICNVNHKPSNTKVDKKVEPKSCDKTHTGPGGGSPGQVQLVQSGAELKKPGASVKVSCKASGYTFTRYTMHWVRQAPGQCLEWMGYINPSRGYTNYNQKFKDKATLTADKSTSTAYMELRSLRSDDTAVYYCARYYDDHYSLDYWGQGTLVTVSSASGGGGSGGGGSGGGGSAGDIQLTQSPSILSASVGDRVTITCRASSSVSYMNWYQQKPGKAPKRWIYDTSKVASGVPYRFSGSGSGTEYTLTISSMQPEDFATYYCQQWSSNPLTFGCGTKVEIKSG
chain 2: not shown
Regarding B1, the EC50 amounted to 0.79 nM.

B2: 53P tribody (other)
chain 1: QVQLVQSGAEVKKPGASVKVSCKASGYSFTSYYMHWVKQSPGQGLEWIGRINPNNGVTLYNQKFKDRVTMTRDTSISTAYMELSRLRSDDTAVYYCARSTMITNYVMDYWGQGTLVTVSSASTKGPSVFPLAPSSKSTSGGTAALGCLVKDYFPEPVTVSWNSGALTSGVHTFPAVLQSSGLYSLSSVVTVPSSSLGTQTYICNVNHKPSNTKVDKKVEPKSCDKTHTGPGGGSPGQVQLVQSGAELKKPGASVKVSCKASGYTFTRYTMHWVRQAPGQCLEWMGYINPSRGYTNYNQKFKDKATLTADKSTSTAYMELRSLRSDDTAVYYCARYYDDHYSLDYWGQGTLVTVSSASGGGGSGGGGSGGGGSAGDIQLTQSPSILSASVGDRVTITCRASSSVSYMNWYQQKPGKAPKRWIYDTSKVASGVPYRFSGSGSGTEYTLTISSMQPEDFATYYCQQWSSNPLTFGCGTKVEIKSG
chain 2: not shown
B2: the EC50 turned out to be 0.84 nM.

B3: 53G tribody (other)
chain 1: QVQLVQSGAEVKKPGASVKVSCKASGYSFTSYYMHWVKQSPGQGLEWIGRINPNNGVTLYNQKFKDRVTMTRDTSISTAYMELSRLRSDDTAVYYCARSTMITNYVMDYWGQGTLVTVSSASTKGPSVFPLAPSSKSTSGGTAALGCLVKDYFPEPVTVSWNSGALTSGVHTFPAVLQSSGLYSLSSVVTVPSSSLGTQTYICNVNHKPSNTKVDKKVEPKSCDKTHTGPGGGSPGQVQLVQSGAELKKPGASVKVSCKASGYTFTRYTMHWVRQAPGQCLEWMGYINPSRGYTNYNQKFKDKATLTADKSTSTAYMELRSLRSDDTAVYYCARYYDDHYSLDYWGQGTLVTVSSASGGGGSGGGGSGGGGSAGDIQLTQSPSILSASVGDRVTITCRASSSVSYMNWYQQKPGKAPKRWIYDTSKVASGVPYRFSGSGSGTEYTLTISSMQPEDFATYYCQQWSSNPLTFGCGTKVEIKSG
chain 2: not shown
B3: the EC50 is 0.78 nM.

For orientation: EC50 means the concentration giving half of the maximal effect.
